Test [1] addresses T1, hCD64-His (human, UniProt P12314 16-288, limits assumed).
T1 construct: Generated in house; captured on anti-His Fab; also called hFcgRI; FcgRI
Description: SPR (BIAcore): 7 µg/ml hCD64-His captured on an anti-His Fab surface, 1 µM antibody as analyte. As to the method: (§1) FCGR BINDING SPR: FcgR binding can be measured in vitro using purified FcgRs using methods such as BIAcore™ surface plasmon resonance (SPR). One method tests the binding of purified antibodies to His-tagged FcgR proteins (FcgR-His) which are captured on the immobilized Fab fragment of an anti-His antibody. These experiments are performed on either a BIAcore™ T100 or BIAcore™ T200 instrument (GE Healthcare Life Sciences, Marlborough, Mass.) at 25° C. The Fab fragment from a murine anti-6×His antibody (generated in house) is immobilized on a CMS sensor chip using standard ethyl(dimethylaminopropyl) carbodiimide (EDC)/N-hydroxysuccinimide (NHS) chemistry with ethanolamine blocking, to a density of ˜3000 RU in a running buffer of 10 mM HEPES pH 7.4, 150 mM NaCl, 3 mM EDTA, 0.05% surfactant p20 (HBS-EP+). All remaining studies are performed using a running buffer of 10 mM NaPO4, 130 mM NaCl, 0.05% p20 (PBS-T) pH 7.1. Various FcγR proteins containing a C-terminal 6× poly-histidine tag (generated in house) are captured on this surface (typically using FcgR-his protein concentration of ˜7 μg/ml) using a contact time of 30 sec at 10 μl/min. Various concentrations of purified antibody are tested for binding, for example using an association time of 120 seconds at 30 μl/min, and a dissociation time of 120 seconds at 30 μl/min. FcgR proteins tested in these studies include the “high affinity” FcgR CD64 (hFcgRI), as well as the “low affinity” FcgRs CD32a-H131 (FcgRIIa-H131), CD32a-R131 (FcgRIIa-R131), CD32b (FcgRIIb), CD16a-V158 (FcgRIIIa-V158), and CD16b-NA2 (FcgRIIIb-NA2).

The target in another test is T2, hCD16a-V158-His (human, UniProt P08637 17-208).
T2 construct: Generated in house; captured on anti-His Fab; Allele V158 as printed; the database entry may carry F at that position; also called FcgRIIIa-V158
T2 sequence (P08637 other isoform, or with tags, fused parts or gaps limits assumed): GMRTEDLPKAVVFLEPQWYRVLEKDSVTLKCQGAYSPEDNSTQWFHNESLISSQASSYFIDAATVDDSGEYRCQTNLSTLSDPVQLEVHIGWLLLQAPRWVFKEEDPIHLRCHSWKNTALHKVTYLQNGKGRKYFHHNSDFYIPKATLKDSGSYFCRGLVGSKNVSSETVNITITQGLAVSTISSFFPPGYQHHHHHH
Description: SPR. The protocol: as §1

In another test the target is T3, hCD32a-H131-His (human, UniProt P12318 34-217).
T3 construct: Generated in house; captured on anti-His Fab; also called FcgRIIa-H131
T3 sequence: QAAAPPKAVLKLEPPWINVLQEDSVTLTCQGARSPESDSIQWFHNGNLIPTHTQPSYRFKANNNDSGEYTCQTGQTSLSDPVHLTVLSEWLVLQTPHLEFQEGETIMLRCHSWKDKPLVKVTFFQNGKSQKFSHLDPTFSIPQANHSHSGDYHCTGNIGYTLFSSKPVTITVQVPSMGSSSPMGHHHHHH
In words: SPR. The protocol: as §1

The target of a further test is T4, hCD32b-His (human, UniProt P31994 43-217).
T4 construct: Generated in house; captured on anti-His Fab; also called FcgRIIb
T4 sequence: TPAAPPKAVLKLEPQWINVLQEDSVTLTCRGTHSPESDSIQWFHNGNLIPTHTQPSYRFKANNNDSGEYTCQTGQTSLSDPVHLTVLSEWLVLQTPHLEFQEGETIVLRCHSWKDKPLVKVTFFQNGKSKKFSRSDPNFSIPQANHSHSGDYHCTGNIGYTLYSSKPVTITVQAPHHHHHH
In words: SPR. As to the method: as §1

In a further test the target is T5, hCD32a-R131-His (human, UniProt P12318 34-217).
T5 construct: Generated in house; captured on anti-His Fab; Allele R131 as printed; the database entry may carry H at that position; also called FcgRIIa-R131
T5 sequence: T3 sequence with H134R
Description: SPR. The protocol: as §1

For test [2], the target named is T6, human-CD40 monomer (human, UniProt P25942 21-193, limits assumed).
T6 construct: also called hCD40-monomer; human-CD40-monomer protein
T6 sequence (P25942 21-193 limits assumed): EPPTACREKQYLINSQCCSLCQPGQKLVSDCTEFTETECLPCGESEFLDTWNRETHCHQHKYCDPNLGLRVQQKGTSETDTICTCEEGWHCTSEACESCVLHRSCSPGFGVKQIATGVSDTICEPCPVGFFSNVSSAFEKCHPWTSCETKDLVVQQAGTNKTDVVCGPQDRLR
Description: SPR, Ab captured on protein A, CD40 monomer analyte.

The target of test [3] is human CD40 on primary human cells (tonsillar B cells, immature dendritic cells) (human, UniProt P25942 21-277). Description: cell-based or functional assay.
Chain of human CD40 on primary human cells (tonsillar B cells, immature dendritic cells) (P25942 21-277 limits assumed): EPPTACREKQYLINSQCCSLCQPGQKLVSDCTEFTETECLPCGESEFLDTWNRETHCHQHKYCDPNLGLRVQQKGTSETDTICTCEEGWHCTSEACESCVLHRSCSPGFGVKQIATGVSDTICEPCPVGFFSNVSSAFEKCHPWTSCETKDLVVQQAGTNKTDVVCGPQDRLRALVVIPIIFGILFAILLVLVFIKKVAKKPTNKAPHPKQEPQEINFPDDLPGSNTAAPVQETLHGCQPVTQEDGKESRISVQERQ
The target in test [4] is T6, human-CD40 monomer. In words: SPR, Ab captured on protein A, CD40 monomer analyte. The protocol:
These chimeric antibodies were tested for CD40 and FcgR binding by SPR, as well as for iDC activation.
The source holds these as a separate data set.

Test [5] has as its target T1, hCD64-His. Description: SPR. The protocol: as §1

Positions count from the first letter of the chain named. Names and notes keep the numbering of the source. Read-outs that look alike come from different tables or passages of the source.

T1 sequence (P12314 other isoform, or with tags, fused parts or gaps limits assumed): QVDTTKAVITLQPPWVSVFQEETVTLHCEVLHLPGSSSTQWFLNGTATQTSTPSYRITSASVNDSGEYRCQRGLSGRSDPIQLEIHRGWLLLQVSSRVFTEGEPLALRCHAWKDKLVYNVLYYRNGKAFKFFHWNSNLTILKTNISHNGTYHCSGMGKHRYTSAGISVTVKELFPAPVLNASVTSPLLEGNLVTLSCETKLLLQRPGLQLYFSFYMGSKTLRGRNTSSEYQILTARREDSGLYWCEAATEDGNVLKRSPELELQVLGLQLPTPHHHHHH

B1: 5F11-45-IgG1f (antibody)
heavy: not shown
light: DIVLTQSPDSLAVSLGERATINCRASKNVDSYGNSFMHWYQQKPGQPPKLLIYRASNLESGVPDRFSGSGSGTDFTLTISSLQAEDVAVYYCQQSNEDPLTFGQGTKLEIKRTVAAPSVFIFPPSDEQLKSGTASVVCLLNNFYPREAKVQWKVDNALQSGNSQESVTEQDSKDSTYSLSSTLTLSKADYEKHKVYACEVTHQGLSSPVTKSFNRGEC
notes: Humanized anti-CD40, wild type human IgG1f
On to B1, for which the binding result with hCD64-His [1], with hCD16a-V158-His, with hCD32a-H131-His, in the test with hCD32b-His and with hCD32a-R131-His was “binds” in each case. This molecule also came in with a dissociation constant (Kd) with human-CD40 monomer [2] of 6.7 nM. Also, in the test with human-CD40 monomer [2], the dissociation rate constant (koff) was found to be 0.00046 s⁻¹. In the test with human-CD40 monomer [2], this molecule came in with a kon of 69000 M⁻¹ s⁻¹.

B2: 5F11-45-SE (antibody, human IgG1, kappa)
heavy: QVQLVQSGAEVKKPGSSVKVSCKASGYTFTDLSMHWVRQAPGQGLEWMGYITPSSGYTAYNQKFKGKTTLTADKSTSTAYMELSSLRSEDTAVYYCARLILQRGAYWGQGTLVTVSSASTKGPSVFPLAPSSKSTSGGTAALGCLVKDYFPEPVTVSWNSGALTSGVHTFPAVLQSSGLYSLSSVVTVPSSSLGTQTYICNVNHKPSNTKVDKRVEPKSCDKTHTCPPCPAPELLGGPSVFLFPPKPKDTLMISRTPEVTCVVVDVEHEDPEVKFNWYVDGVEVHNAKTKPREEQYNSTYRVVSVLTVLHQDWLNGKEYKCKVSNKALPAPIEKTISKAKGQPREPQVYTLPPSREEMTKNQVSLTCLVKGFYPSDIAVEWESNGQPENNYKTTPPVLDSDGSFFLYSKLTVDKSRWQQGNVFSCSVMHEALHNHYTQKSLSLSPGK
light: B1 light
notes: also called S267E variant
For B2, in the test with hCD32a-H131-His, the binding result is listed as “binds”. Further, the binding result in the test with hCD32b-His was “binds”. The binding result in the test with hCD32a-R131-His is on record as “binds”. Also, in the test with human-CD40 monomer [2], the dissociation constant Kd was found to be 6.6 nM, the koff stood at 0.00047 s⁻¹ and the kon amounted to 71000 M⁻¹ s⁻¹.

B3: 5F11-45-N297A (antibody, human IgG1, kappa, N297A)
heavy: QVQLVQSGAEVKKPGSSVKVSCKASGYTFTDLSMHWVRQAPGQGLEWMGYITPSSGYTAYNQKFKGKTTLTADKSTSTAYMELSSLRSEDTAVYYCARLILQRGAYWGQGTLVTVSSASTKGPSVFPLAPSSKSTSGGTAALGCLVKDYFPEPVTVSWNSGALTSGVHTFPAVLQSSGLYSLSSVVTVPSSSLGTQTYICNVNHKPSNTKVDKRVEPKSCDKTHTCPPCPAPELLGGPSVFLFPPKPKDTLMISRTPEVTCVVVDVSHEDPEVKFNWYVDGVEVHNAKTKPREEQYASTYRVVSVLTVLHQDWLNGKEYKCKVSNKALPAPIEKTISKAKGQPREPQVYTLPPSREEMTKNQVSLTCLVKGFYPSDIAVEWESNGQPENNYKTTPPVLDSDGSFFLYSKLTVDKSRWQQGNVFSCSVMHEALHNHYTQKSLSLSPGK
light: B1 light
Turning to B3, the binding result with hCD64-His [1] is reported as “binds”. In the test with human-CD40 monomer [2], this molecule yielded a Kd of 2.8 nM, a koff of 0.00022 s⁻¹ and a kon of 80000 M⁻¹ s⁻¹.

B4: 5F11-45-P238K (antibody, human IgG1, kappa)
heavy: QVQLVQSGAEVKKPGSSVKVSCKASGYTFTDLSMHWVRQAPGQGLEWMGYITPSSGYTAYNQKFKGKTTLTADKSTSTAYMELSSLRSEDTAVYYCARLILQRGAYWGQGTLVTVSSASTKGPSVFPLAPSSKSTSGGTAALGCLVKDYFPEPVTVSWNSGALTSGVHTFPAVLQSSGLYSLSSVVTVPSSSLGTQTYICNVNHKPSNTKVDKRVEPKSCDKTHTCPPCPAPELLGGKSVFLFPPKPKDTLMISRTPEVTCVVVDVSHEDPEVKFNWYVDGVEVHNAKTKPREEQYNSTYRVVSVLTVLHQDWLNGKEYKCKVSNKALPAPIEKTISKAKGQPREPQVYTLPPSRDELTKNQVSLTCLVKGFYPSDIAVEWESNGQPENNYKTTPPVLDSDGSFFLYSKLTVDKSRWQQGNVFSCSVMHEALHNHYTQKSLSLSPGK
light: B1 light
Consider B4, for which, in the test with hCD64-His [1], the binding result is “binds”. In the test with human-CD40 monomer [2], this molecule registered a dissociation constant (Kd) of 3.3 nM, an off-rate constant (koff) of 0.00027 s⁻¹ and a kon of 79000 M⁻¹ s⁻¹. For the same molecule, the “IC50 for inhibition of proliferation of B cells, CD40L Trimer” value (from here on “IC50 for inhibition … CD40L Trimer”) in [3] amounted to 10 ng/mL.

B5: 5F11-45-CTza (antibody, human IgG1, kappa)
heavy: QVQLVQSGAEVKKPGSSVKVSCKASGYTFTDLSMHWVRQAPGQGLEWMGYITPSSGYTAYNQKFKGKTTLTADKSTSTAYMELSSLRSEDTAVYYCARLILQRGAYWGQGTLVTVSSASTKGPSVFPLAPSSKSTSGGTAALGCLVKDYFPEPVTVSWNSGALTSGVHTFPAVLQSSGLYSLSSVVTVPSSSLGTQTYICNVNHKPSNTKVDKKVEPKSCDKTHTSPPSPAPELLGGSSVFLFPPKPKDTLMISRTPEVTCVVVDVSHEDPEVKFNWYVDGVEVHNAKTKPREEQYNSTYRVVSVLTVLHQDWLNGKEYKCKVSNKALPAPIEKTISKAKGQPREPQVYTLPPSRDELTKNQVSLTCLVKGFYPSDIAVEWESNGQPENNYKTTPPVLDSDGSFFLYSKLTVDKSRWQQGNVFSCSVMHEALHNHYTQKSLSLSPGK
light: B1 light
Regarding B5, the binding result with hCD64-His [1] was “binds”. Moreover, in the test with human-CD40 monomer [2], the affinity, expressed as Kd, was 1.6 nM; the koff stood at 0.00014 s⁻¹; the on-rate (kon) was 88000 M⁻¹ s⁻¹.

B6: 5F11-45-V11 (antibody, human IgG1, kappa)
heavy: QVQLVQSGAEVKKPGSSVKVSCKASGYTFTDLSMHWVRQAPGQGLEWMGYITPSSGYTAYNQKFKGKTTLTADKSTSTAYMELSSLRSEDTAVYYCARLILQRGAYWGQGTLVTVSSASTKGPSVFPLAPSSKSTSGGTAALGCLVKDYFPEPVTVSWNSGALTSGVHTFPAVLQSSGLYSLSSVVTVPSSSLGTQTYICNVNHKPSNTKVDKRVEPKSCDKTHTCPPCPAPELLGDDSVFLFPPKPKDTLMISRTPEVTCVVVDVSDEDGEVKFNWYVDGVEVHNAKTKPREEQYNSTYRVVSVLTVLHQDWLNGKEYKCKVSNKALPRPIEKTISKAKGQPREPQVYTLPPSREEMTKNQVSLTCLVKGFYPSDIAVEWESNGQPENNYKTTPPVLDSDGSFFLYSKLTVDKSRWQQGNVFSCSVMHEALHNHYTQKSLSLSPGK
light: B1 light
notes: Control with enhanced selectivity for hCD32b
On to B6, for which the binding result with hCD32b-His was “binds”. In the test with human-CD40 monomer [2], the dissociation constant Kd is 3.9 nM, the koff worked out at 0.0003 s⁻¹ and the association rate constant (kon) stood at 79000 M⁻¹ s⁻¹.

B7: Y1238-P238K (antibody, human IgG1, kappa)
heavy: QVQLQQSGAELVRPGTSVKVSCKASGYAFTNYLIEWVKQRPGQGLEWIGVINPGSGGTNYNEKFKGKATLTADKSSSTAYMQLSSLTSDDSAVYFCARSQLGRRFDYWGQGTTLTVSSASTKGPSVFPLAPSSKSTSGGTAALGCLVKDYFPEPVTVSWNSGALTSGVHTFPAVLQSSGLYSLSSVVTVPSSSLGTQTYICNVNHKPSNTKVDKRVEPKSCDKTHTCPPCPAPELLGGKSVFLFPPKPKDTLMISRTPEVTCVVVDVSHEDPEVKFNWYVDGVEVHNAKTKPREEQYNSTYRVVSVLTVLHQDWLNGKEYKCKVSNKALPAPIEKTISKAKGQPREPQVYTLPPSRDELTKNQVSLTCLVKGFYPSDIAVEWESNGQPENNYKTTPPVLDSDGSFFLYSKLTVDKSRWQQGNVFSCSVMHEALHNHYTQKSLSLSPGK
light: DIVMTQSHKFMSTSVGDRVSITCKASQDVRTGVAWYQQKPGQSPKLLIYSASYRNTGVPDRFTGSRSGTDFTFTISSVQAEDLAVYYCQQHYSPPYTFGGGTKLEIKRTVAAPSVFIFPPSDEQLKSGTASVVCLLNNFYPREAKVQWKVDNALQSGNSQESVTEQDSKDSTYSLSSTLTLSKADYEKHKVYACEVTHQGLSSPVTKSFNRGEC
notes: Chimeric; also called chimeric Y1238-P238K
As to B7, in the test with human-CD40 monomer [4], the dissociation constant (Kd) is 2.6 nM, the koff amounted to 0.00026 s⁻¹ and the kon amounted to 97000 M⁻¹ s⁻¹. Moreover, in the test with hCD64-His [5], the binding result is listed as “binds”. For the same molecule, in [3], the “IC50 for inhibition … CD40L Trimer” value turned out to be 3.4 ng/mL and the “IC50 for inhibition of proliferation of B cells, CHO CD40L” value turned out to be 18.4 ng/mL.

B8: Y1238-N297A (antibody, human IgG1, kappa, N297A)
heavy: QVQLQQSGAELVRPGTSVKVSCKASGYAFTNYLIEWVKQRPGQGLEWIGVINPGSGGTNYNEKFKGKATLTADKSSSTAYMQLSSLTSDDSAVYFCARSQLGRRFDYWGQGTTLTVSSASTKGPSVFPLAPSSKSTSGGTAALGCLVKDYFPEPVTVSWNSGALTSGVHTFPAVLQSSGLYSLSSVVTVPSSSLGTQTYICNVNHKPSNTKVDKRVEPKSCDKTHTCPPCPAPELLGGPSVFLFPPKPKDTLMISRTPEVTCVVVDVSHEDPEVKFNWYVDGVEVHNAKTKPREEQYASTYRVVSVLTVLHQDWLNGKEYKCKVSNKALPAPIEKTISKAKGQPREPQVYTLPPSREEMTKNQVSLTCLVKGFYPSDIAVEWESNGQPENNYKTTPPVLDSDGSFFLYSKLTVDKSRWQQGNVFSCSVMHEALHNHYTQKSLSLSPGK
light: B7 light
notes: Chimeric; also called chimeric Y1238-N297A
In the test with human-CD40 monomer [4], B8 yielded a Kd of 2.5 nM, an off-rate (koff) of 0.00024 s⁻¹ and an on-rate constant (kon) of 97000 M⁻¹ s⁻¹. Moreover, the binding result with hCD64-His [5] is on record as “binds”. For the same molecule, in test [3], the “IC50 for inhibition … CD40L Trimer” value was 3.6 ng/mL and the “IC50 for inhibition of proliferation of B cells, CHO CD40L” value was determined as 17 ng/mL.

B9: Y1238-CTza (antibody, human IgG1, kappa)
heavy: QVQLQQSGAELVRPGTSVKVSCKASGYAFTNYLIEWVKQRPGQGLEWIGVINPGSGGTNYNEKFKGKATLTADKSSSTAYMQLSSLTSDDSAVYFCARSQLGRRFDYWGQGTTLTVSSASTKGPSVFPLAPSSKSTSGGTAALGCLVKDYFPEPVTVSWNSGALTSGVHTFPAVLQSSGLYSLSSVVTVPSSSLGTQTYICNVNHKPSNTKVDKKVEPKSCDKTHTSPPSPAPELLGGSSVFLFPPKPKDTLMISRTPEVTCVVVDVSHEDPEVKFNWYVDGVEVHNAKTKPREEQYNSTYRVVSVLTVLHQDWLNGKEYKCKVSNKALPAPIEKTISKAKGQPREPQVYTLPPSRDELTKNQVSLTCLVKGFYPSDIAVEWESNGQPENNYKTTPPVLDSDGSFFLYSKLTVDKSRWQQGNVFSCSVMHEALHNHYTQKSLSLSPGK
light: B7 light
notes: Chimeric; also called chimeric Y1238 CTza
In the test with human-CD40 monomer [4], B9 displayed a Kd of 2.3 nM, an off-rate constant (koff) of 0.00023 s⁻¹ and a kon of 100000 M⁻¹ s⁻¹. The binding result with hCD64-His [5] is on record as “binds”.

(Values after patent US20220177596A1 (Bristol-Myers Squibb, published 2022).)
